Source: the RNAGym collection of RNA variant scans (doi:10.1073/pnas.2313332121)
Variants at the floor of the assay were thinned out.

B1: TPR 5TU (parent)
chain: GGAUCUUCUCGAUCUAACAAAAAAGACAAAUCUGCCACAAAGCUUGAGAGCAUCUUCGGAUGCAGAGGCGGCAGCCUUCGGUGGCGCGAUAGCGCCAACGUUCUCAACUAUGACACGCAAAACGCGUGCUCCGUUGAAUGGAGUUUAUCAUG

Variants of: B1
Experiment: polymerase ribozyme fitness, log enrichment relative to wild type (log ratio); higher = more active; in vitro selection for triplet polymerase activity
In short: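 PCR was used to build mutant libraries for each subunit of a heterodimeric triplet polymerase ribozyme, which were then transcribed. A single in vitro selection round, in triplicate, used a frozen incubation at −7 °C and recovered extended constructs by gel excision, streptavidin beads and RT-PCR. Fitness is the logarithm of genotype enrichment relative to wild-type enrichment, averaged over replicates with inverse-variance weights. The logarithm is base 2, and after Illumina sequencing only genotypes with ≥10 input reads and ≥1 read per output were kept.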

Variant	polymerase ribozyme fitness (log ratio)
GGAUCUUCUCGAUCUAACAAAAAAGACAAAUCUGCCACAAAGCUUGAGAGCCUCAACGGAUGCAGAGGCGGCAGCCUUCGGUGGCCCGAUAGCGCCAACGUUCUCAACUAUGACACGCAAAACGCGUGCUCCGUUGAAUGGAGUUUAUCAUG [A52C U55A U56A G86C]	-4.01
GGAUCUUCUCGAUCUAACAAAAAAGACAAAUCUGCCACAAAGCUUGAGAGCCUCAUCGGAUGCAGAGGCGGCAGCCUUCGGUGGGGCGAUAGCGCCAACGUUCUCAACUAUGACAAGCAAAACGCGUGCUCCGUUGAAUGGAGUUUAUCAUG [A52C U55A C85G C116A]	-3.78
GGAUCUUCUCGAUCUAACAAAAAAGACAAAUCUGCCACAAAGCUUGAGAGCGUCUUCGGAUGCAGAGGCGGCGGCCUUCGGUGGCGCGAUAGCGCCAACGUUCUCAACUAUGACACGCAAAACGCGUGCUCCGUUGAAUGGAGUUUAUCAUG [A52G A73G]	-0.266
GGAUCUUCUCGAUCUAACAAAAAAGACAAAUCUGCCACAAAGCUUGAGAGCGUCUUCGGAUGCAGAGGCGGCAGCCUUCGGUGGCGCGAUAGCGCCAACGUUCUCGACUAUGACACGCAAAACGCGUGCUCCGUUGAAUGGAGUUUAUCAUG [A52G A106G]	-0.771
GGAUCUUCUCGAUCUAACAAAAAAGACAAAUCUGCCACAAAGCUUGAGAGCGUCUUCGGAUGCAGAGGCGGCAGCCUUCGGUGGCGCGUUAGCGCCAACGUUCUCAACUAUGACACGCAAAACUCGUGCUCCGUUCAAUGGAGUUUAUCAUG [A52G A89U G124U G136C]	-3.18
GGAUCUUCUCGAUCUAACAAAAAAGACAAAUCUGCCACAAAGCUUGAGAGCCUCUUCGGAUGCAGAGGCGGCAGCCUUCGGUGGCGCGAUAGCGCCAACGGUCUCAACUAUGACACGCAAAACGCGUGCUCCGUUGAAUGGAGUUUAUCAUG [A52C U101G]	-1.56
GGAUCUUCUCGAUCUAACAAAAAAGACAAAUCUGCCACAAAGCUUGAGAGCGUCUUCGGAUGCAGCGGCGGCAGCCUUCGGUGGAGCGAUAGCGCCAACGUUCUCAACUCUGACACGCAAAACGCGUGCUCCGUUGAAUGGAGUUUAUCAUG [A52G A66C C85A A110C]	≤ -4.2
GGAUCUUCUCGAUCUAACAAAAAAGACAAAUCUGCCACAAAGCUUGAGAGCGUCUUCGGAUGCAGAGGCGGCAGCCUUCGGUGGCGCGAUAGCGCCAACGUUCUCAACUAUGACACGCAAAACGCGUGCUCCGUUGAAUGGAGUUUAUCGUG [A52G A150G]	-2.55
GGAUCUUCUCGAUCUAACAAAAAAGACAAAUCUGCCACAAAGCUUGAGAGCCUCUCAGGAUGCAGAAGCGGCAGCCUUCGGUGGUGCGAUAGCGCCUACGUUCUCAACUAUGACACGCAAAACGCGUGCUCCGUUGAAUGGAGUUGAUCAGG [A52C U56C C57A G67A C85U A97U U146G U151G]	≤ -4.2
GGAUCUUCUCGAUCUAACAAAAAAGACAAAUCUGCCACAAAGCUUGAGAGCGUCUUCGGAUGCAGAGGCGGCAGCCUUCGGUGGCGCGAUAGCGCCAUCGUUCUCAACUAUGACACGCAAAACGCGUGCUCCGUUGAAUGGAGUUUAUCAUG [A52G A98U]	-2.02
GGAUCUUCUCGAUCUAACAAAAAAGACAAAUCUGCCACAAAGCUUGAGAGCGUCUUCGGAUGCUGAGGCGGCAGCCUUCGAUGGCCCGAUAACGCCAACGUUCUCAACUAUGACACGCAAACCGCGUGCUCCGUUGAAUGGACUUUAUCAUG [A52G A64U G81A G86C G92A A122C G143C]	≤ -4.2
GGAUCUUCUCGAUCUAACAAAAAAGACAAAUCUGCCACAAAGCUUGAGAGCCUCUUCGGAUGCAGAGGCGGCAGCCUUCGGUGGCGCGAUAGCGCCAACGUUCUCAACUAUGACACGCAAAACGCGUGCUCCGUUGAAUGGAGUUUAACAUG [A52C U148A]	-4.18
GGAUCUUCUCGAUCUAACAAAAAAGACAAAUCUGCCACAAAGCUUGAGAGCCUCAUCGGAUGCAGAGGCGGCAGCCUUCGGCGGCGCGAUAGCGCCAACGUUCUCAACUAUGACACGCAAAACGCGUGCUCCGUUGAAUGGAGUUUAUCAUG [A52C U55A U82C]	-2.36
GGAUCUUCUCGAUCUAACAAAAAAGACAAAUCUGCCACAAAGCUUGAGAGCGUCUUCGGGUGCAGAGGCGGCAGUCUUCGGUGGCGCUAUAACGUCAACGUUCUCAACUAUGACAUGCAAAACGCGUGCUCCGUUGAAUGGAGUUUAUCAUG [A52G A60G C75U G88U G92A C95U C116U]	≤ -4.2
GGAUCUUCUCGAUCUAACAAAAAAGACAAAUCUGCCACAAAGCUUGAGAGCGUCUUCGGAUGCAGAGGCGGCAGCCUUCGGUGGCGCGAUAGCGCCAACGUUCUCACCUAUGACACGCAAAACGCGUGCUCCGUUGAAUGGAGUUUAUCAUG [A52G A107C]	-3.09
GGAUCUUCUCGAUCUAACAAAAAAGACAAAUCUGCCACAAAGCUUGAGAGCGUCUUCGGAUGCAGAGGCGGCAGCCUUCGGUGGCGCGAUAGCGCCAACGUUCUCAUCUAUGACACGCAAAACGCGUGCUCCGUUGAAUGGAGUUUAUCAUG [A52G A107U]	-3.56
GGAUCUUCUCGAUCUAACAAAAAAGACAAAUCUGCCACAAAGCUUGAGAGCGUCUUCGGAUGCAGUGGCGGCAGCCUUCGGUGGCGCGAUUGCGCCAACGUUCUCAACUAUGACACGCAAAACGCGUGCUCCGUUGAAUGGAGUUUAUCAUG [A52G A66U A91U]	≤ -4.2
GGAUCUUCUCGAUCUAACAAAAAAGACAAAUCUGCCACAAAGCUUGAGAGCCUCGUCGGAUGCAGAGGCGGCAGCCUUCGGUGGCGCGAUAGCGCCAACGUUCUCAACUAUGACACGCAAAACGCGUGCUCCGUUGAAUGGAGUUUAUCAUG [A52C U55G]	-3.84
GGAUCUUCUCGAUCUAACAAAAAAGACAAAUCUGCCACAAAGCUUGAGAGCCUCCUCGGAUGCAGAGGCGGCAGCCUUCGGUAGCGCGAUAGCGCCAACGUUCUCAACUAUGACACGCAAAACGCGUGCUCCGUUGAAUGGAGUUUAUCAAA [A52C U55C G83A U151A G152A]	≤ -4.2

Variant	polymerase ribozyme fitness (log ratio)
GGAUCUUCUCGAUCUAACAAAAAAGACAAAUCUGCCACAAAGCUUGAGAGCGUCUUCGGAUGCAGAGGCGGCGGCCUUCGGUGGCGCGAUAGCGCCAAUGUUCUCAACUAUGACACACAAAACGCGUGCUCCGUUGAAUGGAGUUUAUCAUG [A52G A73G C99U G117A]	-1.7
GGAUCUUCUCGAUCUAACAAAAAAGACAAAUCUGCCACAAAGCUUGAGAGCCUCUACGGAUGCAGACGCGGCAGCCUUCGGUGACGCGAUAGCGCCAACGUUCUCAACUAUGACACGCAAAACGCGUGCUCCGUUGAAGGGAGAUUAUCAUG [A52C U56A G67C G84A U139G U144A]	≤ -4.2
GGAUCUUCUCGAUCUAACAAAAAAGACAAAUCUGCCACAAAGCUUGAGAGCGUCUUCGGAUGCAGAGGCGGCGGCCUUCGGUGGUGCGAUAGCGCCAACGUUCUCAACUAUGACACGCAAAACGCGUGCUCCGUUGAAUGGAGUUUAUCAUG [A52G A73G C85U]	-0.163
GGAUCUUCUCGAUCUAACAAAAAAGACAAAUCUGCCACAAAGCUUGAGAGCGUCUUCGGUUGCAGAGGCGGCAGCCUUCGGUGGAGCGAUAGCUCGAACGUUCUCAACUAUGACACGCAAAACGCGUGCUCCGUUGAAUGGAGUUUAUCAUG [A52G A60U C85A G94U C96G]	-3.93
GGAUCUUCUCGAUCUAACAAAAAAGACAAAUCUGCCACAAAGCUUGAGAGCGUCUUCGGAUGCAGAGGCGGCAGCCUUCGGUGGCGCGAUAGCGCCAACGUUCUCAACUAUGACACGCAACACGCGUGCUCCGUUGAAUGGAGUUUAUCAUG [A52G A121C]	-0.337
GGAUCUUCUCGAUCUAACAAAAAAGACAAAUCUGCCACAAAGCUUGAGAGCGUCUUCGGAUGCAGAGGCGGCAGCCUUCGGUGGCGCGAUAGCGCCAACGUUCUCAACUAUGACACGCAAAACGCGUGCUCCGUUGCAUGGAGUUUAUCAUG [A52G A137C]	-3.28
GGAUCUUCUCGAUCUAACAAAAAAGACAAAUCUGCCACAAAGCUUGAGAGCCUCAUCGGAUGCAGCGGCGGCAGCCUUGGGUGGCGCGAUAGCGCCAACGUUCUCAACUAUGACACGCAAAACGCGUGCUCCUUUGGAUGGAGUUUAUCAUG [A52C U55A A66C C79G G133U A137G]	≤ -4.2
GGAUCUUCUCGAUCUAACAAAAAAGACAAAUCUGCCACAAAGCUUGAGAGCCACUUCGGAUGCAGAGGCGGCAGCCUUCGGUGGCGCCAUAGCGUCAACGUUCUCAACUAUGACACGCAAAACGCGUGCUCCGUUGAAUGGAGUCUAUCAUG [A52C U53A G88C C95U U145C]	≤ -4.2
GGAUCUUCUCGAUCUAACAAAAAAGACAAAUCUGCCACAAAGCUUGAGAGCCUCUUCGGAUGCAGAGGCGGCAGCCUUCGGUGGCGCGAUAGCGCCAACGUUCUCAACUACGACACGCAACAAGCGUGCUCCGUUGAAUGGAGUAUAUCGUG [A52C U111C A121C C123A U145A A150G]	-3.02
GGAUCUUCUCGAUCUAACAAAAAAGACAAAUCUGCCACAAAGCUUGAGAGCCUCUUCGGAUGCAGAGGCGGCAGCCGUUGGUGGCGAGAUAGCGUCAACGUUCUCAACUAUGACACGCAAAACGCGUGCUCCGUUGAAUGGAGUUUAUCAUG [A52C U77G C79U C87A C95U]	≤ -4.2
GGAUCUUCUCGAUCUAACAAAAAAGACAAAUCUGCCACAAAGCUUGAGAGCCUCUUCGGAUGCAGAGGCGGCAGCCUUCGGUGGCGCGAGAGCGCCAACGUUCUCAACUAUGACACGCAAAACGCGUGCUCCGUUGAAUGGAGUUUAUCAUG [A52C U90G]	≤ -4.2
GGAUCUUCUCGAUCUAACAAAAAAGACAAAUCUGCCACAAAGCUUGAGAGCGUCUUCGGCUGCAGAGGCGGCAGCCUUCGGUGGCGCGAUAGCGCCAACGUUCUCAACUAUGACACGCAAAACGCGUGCUCCGUUGAAUGGAGUUUAUCAUG [A52G A60C]	-1.96
GGAUCUUCUCGAUCUAACAAAAAAGACAAAUCUGCCACAAAGCUUGAGAGCCUCAUCGGAUGCAGAGGCGGCAUCCUUCGGUGGCGCUAUAUCGCCAACGUUCUGAGCUAUGACACGCAAAACGCGUGCUCCGUUGAAUGGAGUUUAUCAUG [A52C U55A G74U G88U G92U C105G A107G]	≤ -4.2
GGAUCUUCUCGAUCUAACAAAAAAGACAAAUCUGCCACAAAGCUUGAGAGCGUAUUCGGAUGCAGAGGCGGCAGCCUUCGGUGGCGCGAUAGCGCCAACGUUCUCAACUAUGACACGCAAAACGCGUGCUCCGUUGAAUGGAGUUUAUCAUG [A52G C54A]	-0.998
GGAUCUUCUCGAUCUAACAAAAAAGACAAAUCUGCCACAAAGCUUGAGAGCGUGUUCGGAUGCAGACGCGGCAGCCUUCGAUGGCGCGAUAGCGGCAACGUUCUCAACUAUGACACGCAAAACGCGUGCUCCGUUGAAUGGAGUUUAUCAUG [A52G C54G G67C G81A C95G]	-3.86
GGAUCUUCUCGAUCUAACAAAAAAGACAAAUCUGCCACAAAGCUUGAGAGCCUCAUCGGAUCCAGAGGCGGCAGCCUUCGGUGACGCGAUAGCGCCAACGUUCUUAACUAUGAUACGCAAAACGCGUGCUCCGUUGAAUGAAGUUUAUAAUG [A52C U55A G62C G84A C105U C114U G141A C149A]	≤ -4.2
GGAUCUUCUCGAUCUAACAAAAAAGACAAAUCUGCCACAAAGCUUGAGAGCCUCGUCCAAUGCAGCGGCGGCAGCCUUCGGUGGCGCGAUAGCGCCAACGUUCUCAACUAUGACACGCAAAACGCGUGCUCCGUUGAAUGGAGUUUAUCAUG [A52C U55G G58C G59A A66C]	≤ -4.2
GGAUCUUCUCGAUCUAACAAAAAAGACAAAUCUGCCACAAAGCUUGAGAGCCUCAUCGUAUGCAGAGGCGGCAGCCUUCGGUGGCGCGAUAGCGCCAACGUUCUCAACUAUGACACGCAAAACGCGUGCUCCGUUGAAUGGAGUUUAUCAUG [A52C U55A G59U]	0.0736
GGAUCUUCUCGAUCUAACAAAAAAGACAAAUCUGCCACAAAGCUUGAGAGCGUCUUCGGAUGCAGAGGCGGCUGCCUUCGGUGACGCGAUAGCGCCAACGUUCUCAACUAUGACACGCAAAACGCGUGCUCCGUUGAAUGGAGUUUAUCAUG [A52G A73U G84A]	-2.15
